3 molecules from publication PMC5790771, “Reconstitution of Pure Chaperonin Hetero-Oligomer Preparations in Vitro by Temperature Modulation” (Frontiers in Molecular Biosciences, 2018) can be followed below.

Sequences and labels used below:
B1: Cpn60α1 (At5g18820) (natural protein)
chain: not shown
notes: additional glycine-serine at the N-terminus, left by the cloning (printed in words); Cpn60α1, chloroplast chaperonin 60 alpha subunit of A. thaliana, At5g18820; 543 residues without the putative transit peptide; The vector codes for an octa-histidine tag followed by a TEV site at the amino terminus; also called α1 Cpn60; Cpn60α1 subunit; source: E. coli Rosetta (Novagen), purified based on the …
B2: Cpn60α2 (At2g28000) (natural protein)
chain: not shown
notes: additional glycine-serine at the N-terminus, left by the cloning (printed in words); Cpn60α2, chloroplast chaperonin 60 alpha subunit of A. thaliana, At2g28000; 541 residues without the putative transit peptide; The vector codes for an octa-histidine tag followed by a TEV site at the amino terminus; also called α2 Cpn60; Cpn60α2 subunit; source: E. coli Rosetta (Novagen), purified based on the …
B3: Cpn60β2 (At3g13470) (natural protein, A. thaliana, UniProt Q9LJE4 51-596, looked up)
chain: AAKELHFNKDGTTIRKLQTGVNKLADLVGVTLGPKGRNVVLESKYGSPRIVNDGVTVAREVELEDPVENIGAKLVRQAAAKTNDLAGDGTTTSVVLAQGFIAEGVKVVAAGANPVLITRGIEKTAKALVNELKLMSKEVEDSELADVAAVSAGNNHEVGSMIAEAMSKVGRKGVVTLEEGKSAENNLYVVEGMQFDRGYISPYFVTDSEKMSVEYDNCKLLLVDKKVTNARDLVGVLEDAIRGGYPILIIAEDIEQEALATLVVNKLRGTLKIAALKAPGFGERKSQYLDDIAILTGATVIREEVGLSLDKAGKEVLGNASKVVLTKEMTTIVGDGTTQEAVNKRVVQIRNLIEQAEQDYEKEKLNERIAKLSGGVAVIQVGAQTETELKEKKLRVEDALNATKAAVEEGIVVGGGCTLLRLASKVDAIKDTLENDEEKVGAEIVKRALSYPLKLIAKNAGVNGSVVSEKVLANDNVKFGYNAATGKYEDLMAAGIIDPTKVVRCCLEHAASVAKTFLMSDCVVVEIPEPEPVPAGNPMDNSGYGY
notes: Cpn60β2, chloroplast chaperonin 60 beta subunit of A. thaliana, At3g13470; also called β2 Cpn60; source: purified by a previously published protocol (Vitlin et al., 2011)

Data set [1] concerns the molecule itself. In words: cross-linking; 20 μM purified protein, 0.1% glutaraldehyde, room temperature, 50 mM Na-HEPES (pH 8 in the legend, 7.5 in the methods), 10 mM MgCl2, 100 mM KCl; SDS-PAGE on a 2.4-12% gradient gel, Coomassie.
For the data set “Cpn60β2 (At3g13470)”, the target named is B3. The data set is described as follows: SEC; 150 μM α2, 100 μM β2 and 50 μM mt-cpn10 reconstituted with Mg-ATP (2 ml), Superdex 200 run at 4°C in 50 mM Tris-HCl pH 8, 300 mM NaCl, 5% glycerol; fractions on SDS-PAGE. The following applies: both partners purified. For orientation: SEC sorts molecules by how far they enter the pores of the column.

In another data set the target is T1, Cpn60β3 (At1g55490) (A. thaliana, UniProt P21240 55-600).
T1 construct: Cpn60β3, chloroplast chaperonin 60 beta subunit of A. thaliana, At1g55490; also called β3 Cpn60; source: purified by a previously published protocol (Vitlin et al., 2011)
T1 sequence (P21240 55-600): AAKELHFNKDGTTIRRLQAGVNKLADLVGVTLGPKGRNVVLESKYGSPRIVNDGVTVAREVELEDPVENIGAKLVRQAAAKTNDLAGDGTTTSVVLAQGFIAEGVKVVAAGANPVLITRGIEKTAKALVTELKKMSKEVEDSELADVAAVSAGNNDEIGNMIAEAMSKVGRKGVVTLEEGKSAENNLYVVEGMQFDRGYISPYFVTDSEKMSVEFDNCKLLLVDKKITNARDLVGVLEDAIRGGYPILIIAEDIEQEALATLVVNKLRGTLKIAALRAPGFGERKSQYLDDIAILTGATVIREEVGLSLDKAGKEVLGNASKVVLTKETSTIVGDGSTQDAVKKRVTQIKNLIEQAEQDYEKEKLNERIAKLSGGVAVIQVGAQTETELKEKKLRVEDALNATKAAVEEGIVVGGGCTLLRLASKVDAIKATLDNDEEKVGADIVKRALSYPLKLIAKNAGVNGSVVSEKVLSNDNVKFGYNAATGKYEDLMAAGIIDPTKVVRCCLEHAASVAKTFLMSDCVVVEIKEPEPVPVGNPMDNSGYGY
In words: native gel or EMSA; reconstitution: 150 μM Cpn60α2 with 100 μM Cpn60β and 50 μM Cpn10 (GroES, mt-cpn10, Cpn20 or Cpn10(2)); 50 mM Tris-HCl pH 8, 0.3 M NaCl, 10 mM MgCl2, 16 mM KCl, 2 mM DTT, 5 mM ATP; 5 min at room temperature, 1 h at 30°C; 6% native polyacrylamide gel. The following applies: both partners purified. Background: A gel shift assay detects complexes by their altered migration in electrophoresis.

Data set [2] deals with the molecule itself. In words: SEC; 300 μM β2 and 150 μM mt-cpn10 reconstituted with Mg-ATP (600 μl), Superdex 200 run at room temperature; fractions on SDS-PAGE.

As to B1, in data set [1], the “stoichiometry N” value is 2.

As for B2, the binding result with Cpn60β2 (At3g13470) and with Cpn60β3 (At1g55490) was “binds” each time.

B3: the binding result in data set [2] is “binds”.

Usually stoichiometry N stands for a count of units in the complex or per binding partner.
